Test results taken from article PMC10179125, “Populus euphratica GLABRA3 Binds PLDδ Promoters to Enhance Salt Tolerance”.

B1: PePLDδ promoter G-box probe (dsDNA)
DNA 1: CGCTGATCCGGGTAACTGAAATCAGCTGCTGAGAGATGGAAGAGGAGAAT
DNA 2: ATTCTCCTCTTCCATCTCTCAGCAGCTGATTTCAGTTACCCGGATCAGCG
B2: PePLDδ promoter G-box cold probe (dsDNA)
DNA 1: B1 DNA 1
DNA 2: B1 DNA 2
B3: AtPLDδ promoter G-box probe (dsDNA)
DNA 1: AACTCCCATCACGTCGTCCCTCCACCTGTCCTCTCTTCTCCTTCCTTGCT
DNA 2: AGCAAGGAAGGAGAAGAGAGGACAGGTGGAGGGACGACGTGATGGGAGTT

What was measured:
PeGLABRA3 [1] = target: T1, PeGLABRA3 (Populus euphratica, UniProt A0AAJ6UG00 1-628); assay: EMSA; EMSA on 6% polyacrylamide gel, biotin probes, cold probe 10x; binding buffer, pH, salt and temperature not stated; conditions: protein: recombinant; tags: C-terminal His (pET28a); chain copies: 2; label: 3' biotin; blunt
T1 sequence: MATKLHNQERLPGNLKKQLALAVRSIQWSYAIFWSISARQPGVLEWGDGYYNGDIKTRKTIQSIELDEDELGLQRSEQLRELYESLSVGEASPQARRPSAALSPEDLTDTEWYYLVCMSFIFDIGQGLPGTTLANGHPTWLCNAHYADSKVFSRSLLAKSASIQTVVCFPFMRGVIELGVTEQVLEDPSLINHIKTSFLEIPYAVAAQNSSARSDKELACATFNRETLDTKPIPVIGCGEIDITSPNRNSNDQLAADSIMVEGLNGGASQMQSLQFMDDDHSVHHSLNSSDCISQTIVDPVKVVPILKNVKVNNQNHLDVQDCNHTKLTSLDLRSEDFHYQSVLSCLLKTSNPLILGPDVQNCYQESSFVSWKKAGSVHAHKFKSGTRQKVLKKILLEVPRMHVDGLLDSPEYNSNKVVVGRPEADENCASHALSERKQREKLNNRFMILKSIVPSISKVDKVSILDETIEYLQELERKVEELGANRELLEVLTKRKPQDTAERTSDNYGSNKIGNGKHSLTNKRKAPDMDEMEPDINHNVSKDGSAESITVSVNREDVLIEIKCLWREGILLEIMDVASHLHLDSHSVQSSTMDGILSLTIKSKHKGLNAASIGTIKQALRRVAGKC

PeGLABRA3 [2] = target: T1, PeGLABRA3; assay: competition; 10x unlabeled probe vs biotin N1; EMSA on 6% polyacrylamide gel, biotin probes, cold probe 10x; binding buffer, pH, salt and temperature not stated; conditions: protein: recombinant; tags: C-terminal His (pET28a); chain copies: 2; blunt

Binder | binding result (PeGLABRA3 [1]) | binding result (PeGLABRA3 [2])
B1 | binds | –
B2 | – | binds
B3 | binds | –
